Experimental data from the supplement of paper PMC10065799, “High-throughput profiling of sequence recognition by tyrosine kinases and SH2 domains using bacterial peptide display” (eLife, 2023).

Legend:
SHP2-C SH2 = assay: SH2 binding enrichment of the phosphorylated peptide, bacterial display (enrichment ratio); higher = better substrate or ligand; peptides without Tyr show the background
c-Src SH2 = assay: as above
Grb2 SH2 = Grb2 SH2 (UniProt P62993); assay: as above
AncSZ = assay: phosphorylation enrichment, bacterial display (enrichment ratio); higher = better substrate or ligand; peptides without Tyr show the background
EPHB2 = EPHB2 (UniProt P29323); assay: as above
EPHB1 = EPHB1 (UniProt P54762); assay: as above
FGFR3 = FGFR3 (UniProt P22607); assay: as above
Jak2 = Jak2 (UniProt O60674); assay: as above
MERTK = MERTK (UniProt Q12866); assay: as above
c-Abl (mouse) = assay: as above
Fes = Fes (UniProt P07332); assay: as above
FGFR1 = FGFR1 (UniProt P11362); assay: as above
Fyn = Fyn (UniProt P06241); assay: as above
c-Src = assay: as above
Hck = Hck (UniProt P08631); assay: as above
Fer (mouse) = assay: as above
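Wherever SH2 binding enrichment of the phosphorylated peptide, bacterial display is given: peptide library displayed on the E. coli surface as eCPX fusions, selected cells deep-sequenced, score is each peptide's frequency after selection divided by its frequency in the input.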
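Wherever phosphorylation enrichment, bacterial display is given: 11-residue human phosphosite peptides and single-mutation variants displayed on the E. coli surface, counted by deep sequencing, each peptide's frequency after selection divided by its frequency in the unselected input library; frequency after pTyr selection over input frequency; kinase dosed for 20-30% of maximal phosphorylation in three min.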

Sequence of EPHB1 (P54762 whole entry, looked up): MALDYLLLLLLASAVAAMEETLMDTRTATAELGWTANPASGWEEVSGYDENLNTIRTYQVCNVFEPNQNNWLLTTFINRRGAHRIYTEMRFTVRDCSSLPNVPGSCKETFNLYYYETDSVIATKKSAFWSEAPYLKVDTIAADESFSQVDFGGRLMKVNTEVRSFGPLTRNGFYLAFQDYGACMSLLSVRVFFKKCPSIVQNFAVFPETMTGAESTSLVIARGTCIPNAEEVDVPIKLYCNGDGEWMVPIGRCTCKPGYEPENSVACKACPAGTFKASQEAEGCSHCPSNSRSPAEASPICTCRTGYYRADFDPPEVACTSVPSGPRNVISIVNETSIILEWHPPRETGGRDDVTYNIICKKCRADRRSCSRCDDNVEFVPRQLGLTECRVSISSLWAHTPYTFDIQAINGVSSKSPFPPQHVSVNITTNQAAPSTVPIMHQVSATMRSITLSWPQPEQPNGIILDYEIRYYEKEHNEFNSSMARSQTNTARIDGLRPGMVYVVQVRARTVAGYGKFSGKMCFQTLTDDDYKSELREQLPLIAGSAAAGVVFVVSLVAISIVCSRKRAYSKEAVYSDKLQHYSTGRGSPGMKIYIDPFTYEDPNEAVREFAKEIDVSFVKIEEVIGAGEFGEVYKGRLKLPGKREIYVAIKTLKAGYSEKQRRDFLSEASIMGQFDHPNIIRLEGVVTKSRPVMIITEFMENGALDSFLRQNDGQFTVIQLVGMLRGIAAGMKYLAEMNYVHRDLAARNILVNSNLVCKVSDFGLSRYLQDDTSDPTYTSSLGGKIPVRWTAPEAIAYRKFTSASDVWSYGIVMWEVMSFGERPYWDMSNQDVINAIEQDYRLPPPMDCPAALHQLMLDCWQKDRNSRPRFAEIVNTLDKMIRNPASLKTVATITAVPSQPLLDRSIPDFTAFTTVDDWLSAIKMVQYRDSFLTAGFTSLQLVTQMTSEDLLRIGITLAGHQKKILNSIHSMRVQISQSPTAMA
Sequence of Grb2 SH2 (P62993 whole entry, looked up): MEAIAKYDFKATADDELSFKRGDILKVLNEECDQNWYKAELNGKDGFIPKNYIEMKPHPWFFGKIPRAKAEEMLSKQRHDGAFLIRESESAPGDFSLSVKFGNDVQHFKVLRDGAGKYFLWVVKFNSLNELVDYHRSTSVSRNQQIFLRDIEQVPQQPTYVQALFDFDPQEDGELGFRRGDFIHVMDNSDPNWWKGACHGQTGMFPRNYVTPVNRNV
Sequence of FGFR3 (P22607 whole entry, looked up): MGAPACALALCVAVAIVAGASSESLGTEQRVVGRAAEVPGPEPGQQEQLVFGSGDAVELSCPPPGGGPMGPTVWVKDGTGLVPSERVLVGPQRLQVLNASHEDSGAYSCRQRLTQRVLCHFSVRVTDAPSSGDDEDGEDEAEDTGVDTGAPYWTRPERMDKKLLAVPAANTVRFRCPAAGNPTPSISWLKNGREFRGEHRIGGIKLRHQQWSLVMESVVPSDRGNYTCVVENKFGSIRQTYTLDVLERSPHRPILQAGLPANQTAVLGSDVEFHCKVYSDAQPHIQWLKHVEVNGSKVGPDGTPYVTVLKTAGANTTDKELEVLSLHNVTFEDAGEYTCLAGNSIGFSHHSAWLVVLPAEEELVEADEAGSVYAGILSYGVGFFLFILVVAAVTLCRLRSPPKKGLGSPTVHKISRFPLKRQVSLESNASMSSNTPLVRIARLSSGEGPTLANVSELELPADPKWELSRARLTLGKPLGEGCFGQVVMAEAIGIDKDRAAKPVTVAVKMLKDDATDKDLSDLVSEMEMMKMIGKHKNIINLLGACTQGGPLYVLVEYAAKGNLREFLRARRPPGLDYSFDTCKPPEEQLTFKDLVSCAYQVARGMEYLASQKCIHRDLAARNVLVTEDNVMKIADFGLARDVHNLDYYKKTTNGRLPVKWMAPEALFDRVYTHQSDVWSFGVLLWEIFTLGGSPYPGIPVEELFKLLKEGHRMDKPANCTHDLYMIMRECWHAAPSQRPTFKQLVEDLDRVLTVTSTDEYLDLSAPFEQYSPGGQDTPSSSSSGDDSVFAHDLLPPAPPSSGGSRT
Sequence of FGFR1 (P11362 whole entry, looked up): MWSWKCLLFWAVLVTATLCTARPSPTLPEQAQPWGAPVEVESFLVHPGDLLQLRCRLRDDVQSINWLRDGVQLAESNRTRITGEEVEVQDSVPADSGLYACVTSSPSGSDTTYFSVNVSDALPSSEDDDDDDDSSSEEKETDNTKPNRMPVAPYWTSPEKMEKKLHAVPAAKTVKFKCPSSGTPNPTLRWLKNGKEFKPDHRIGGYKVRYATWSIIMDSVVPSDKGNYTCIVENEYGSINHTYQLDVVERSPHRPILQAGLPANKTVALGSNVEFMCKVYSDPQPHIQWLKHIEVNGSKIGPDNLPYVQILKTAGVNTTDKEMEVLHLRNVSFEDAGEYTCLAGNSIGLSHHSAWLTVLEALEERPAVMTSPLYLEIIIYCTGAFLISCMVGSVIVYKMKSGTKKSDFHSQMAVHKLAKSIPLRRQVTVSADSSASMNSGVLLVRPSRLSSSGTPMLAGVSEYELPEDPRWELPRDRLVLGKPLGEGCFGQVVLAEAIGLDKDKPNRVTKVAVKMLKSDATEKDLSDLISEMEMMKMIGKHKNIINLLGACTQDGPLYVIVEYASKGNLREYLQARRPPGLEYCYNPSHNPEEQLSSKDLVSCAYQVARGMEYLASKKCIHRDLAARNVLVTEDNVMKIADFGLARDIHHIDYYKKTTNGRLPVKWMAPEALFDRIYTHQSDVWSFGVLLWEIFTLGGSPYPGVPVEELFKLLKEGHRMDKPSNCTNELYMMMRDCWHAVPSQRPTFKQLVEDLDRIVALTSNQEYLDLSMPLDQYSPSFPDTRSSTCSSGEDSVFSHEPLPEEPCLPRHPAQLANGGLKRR
Sequence of Hck (P08631 whole entry, looked up): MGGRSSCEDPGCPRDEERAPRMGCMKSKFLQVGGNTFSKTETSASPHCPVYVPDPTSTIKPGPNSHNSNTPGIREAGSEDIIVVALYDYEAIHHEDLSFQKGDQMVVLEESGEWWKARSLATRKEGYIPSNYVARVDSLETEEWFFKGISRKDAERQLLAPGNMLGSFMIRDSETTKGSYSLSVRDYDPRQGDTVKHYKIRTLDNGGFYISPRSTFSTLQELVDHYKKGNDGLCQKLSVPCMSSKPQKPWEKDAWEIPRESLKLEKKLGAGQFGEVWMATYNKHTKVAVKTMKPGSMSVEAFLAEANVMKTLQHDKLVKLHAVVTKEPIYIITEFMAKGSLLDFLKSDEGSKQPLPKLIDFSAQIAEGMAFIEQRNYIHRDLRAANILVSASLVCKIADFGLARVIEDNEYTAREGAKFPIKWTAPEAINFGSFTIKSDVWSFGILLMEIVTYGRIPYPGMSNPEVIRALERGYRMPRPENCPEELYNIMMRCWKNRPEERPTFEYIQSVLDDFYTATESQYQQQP
Sequence of Fyn (P06241 whole entry, looked up): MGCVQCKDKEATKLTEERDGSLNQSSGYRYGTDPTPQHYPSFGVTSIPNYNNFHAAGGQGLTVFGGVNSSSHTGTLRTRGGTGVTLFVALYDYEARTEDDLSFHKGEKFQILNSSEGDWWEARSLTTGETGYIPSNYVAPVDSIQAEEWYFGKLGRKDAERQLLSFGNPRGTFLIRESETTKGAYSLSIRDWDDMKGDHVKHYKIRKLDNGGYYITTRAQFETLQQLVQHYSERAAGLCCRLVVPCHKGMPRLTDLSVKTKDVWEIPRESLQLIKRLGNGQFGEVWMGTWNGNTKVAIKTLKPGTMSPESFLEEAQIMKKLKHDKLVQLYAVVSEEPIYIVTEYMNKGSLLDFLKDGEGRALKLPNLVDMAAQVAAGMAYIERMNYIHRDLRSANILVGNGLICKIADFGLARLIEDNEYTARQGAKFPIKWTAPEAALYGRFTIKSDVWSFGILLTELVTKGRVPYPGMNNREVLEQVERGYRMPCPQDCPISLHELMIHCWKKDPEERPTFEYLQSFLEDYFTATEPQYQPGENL
Sequence of EPHB2 (P29323 whole entry, looked up): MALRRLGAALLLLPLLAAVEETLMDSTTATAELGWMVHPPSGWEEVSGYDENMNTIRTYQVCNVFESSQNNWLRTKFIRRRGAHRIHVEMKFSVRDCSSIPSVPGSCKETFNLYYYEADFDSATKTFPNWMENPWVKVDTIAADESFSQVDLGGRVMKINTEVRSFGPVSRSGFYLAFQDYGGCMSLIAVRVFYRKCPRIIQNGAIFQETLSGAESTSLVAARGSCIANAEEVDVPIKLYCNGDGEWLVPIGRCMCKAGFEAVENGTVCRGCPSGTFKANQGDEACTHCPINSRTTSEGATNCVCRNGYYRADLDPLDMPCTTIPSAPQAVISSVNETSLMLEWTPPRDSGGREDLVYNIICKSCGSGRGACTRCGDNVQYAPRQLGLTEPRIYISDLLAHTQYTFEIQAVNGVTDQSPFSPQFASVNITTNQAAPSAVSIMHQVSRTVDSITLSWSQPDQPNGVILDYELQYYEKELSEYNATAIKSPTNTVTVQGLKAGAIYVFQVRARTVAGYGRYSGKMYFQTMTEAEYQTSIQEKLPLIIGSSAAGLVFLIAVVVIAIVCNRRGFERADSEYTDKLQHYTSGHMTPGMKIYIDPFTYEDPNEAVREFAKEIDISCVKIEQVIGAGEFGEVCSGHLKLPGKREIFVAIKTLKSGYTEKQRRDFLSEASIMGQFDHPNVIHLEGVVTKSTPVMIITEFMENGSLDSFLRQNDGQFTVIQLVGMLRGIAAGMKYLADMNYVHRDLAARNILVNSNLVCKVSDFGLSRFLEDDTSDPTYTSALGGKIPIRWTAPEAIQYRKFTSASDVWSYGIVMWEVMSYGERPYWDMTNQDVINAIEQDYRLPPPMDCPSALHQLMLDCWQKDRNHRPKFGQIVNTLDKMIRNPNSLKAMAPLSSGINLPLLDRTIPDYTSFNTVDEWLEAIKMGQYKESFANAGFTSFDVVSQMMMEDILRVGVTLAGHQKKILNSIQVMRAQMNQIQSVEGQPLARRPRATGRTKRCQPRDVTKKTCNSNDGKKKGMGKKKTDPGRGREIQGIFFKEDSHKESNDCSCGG

HPWPRYTTRAP [FNDC1_Y1281_Q1280R]
SH2 binding enrichment (SHP2-C SH2): 0.643 | SH2 binding enrichment (c-Src SH2): 0.434 | SH2 binding enrichment (Grb2 SH2): 0.684 | phosphorylation enrichment (AncSZ): 0.802 | phosphorylation enrichment (EPHB2): 0.713 | phosphorylation enrichment (EPHB1): 0.509 | phosphorylation enrichment (FGFR3): 0.619 | phosphorylation enrichment (Jak2): 0.518 | phosphorylation enrichment (MERTK): 0.605 | phosphorylation enrichment (c-Abl (mouse)): 0.646 | phosphorylation enrichment (Fes): 0.907 | phosphorylation enrichment (FGFR1): 0.515 | phosphorylation enrichment (Fyn): 0.796 | phosphorylation enrichment (c-Src): 0.654 | phosphorylation enrichment (Hck): 0.849 | phosphorylation enrichment (Fer (mouse)): 0.449

GNKENYGLPQP [BUB1_Y538]
SH2 binding enrichment (SHP2-C SH2): 0.677 | SH2 binding enrichment (c-Src SH2): 0.375 | SH2 binding enrichment (Grb2 SH2): 0.575 | phosphorylation enrichment (AncSZ): 0.634 | phosphorylation enrichment (EPHB2): 0.533 | phosphorylation enrichment (EPHB1): 0.489 | phosphorylation enrichment (FGFR3): 0.609 | phosphorylation enrichment (Jak2): 0.532 | phosphorylation enrichment (MERTK): 0.341 | phosphorylation enrichment (c-Abl (mouse)): 1.26 | phosphorylation enrichment (Fes): 0.69 | phosphorylation enrichment (FGFR1): 0.372 | phosphorylation enrichment (Fyn): 0.321 | phosphorylation enrichment (c-Src): 0.392 | phosphorylation enrichment (Hck): 0.342 | phosphorylation enrichment (Fer (mouse)): 0.353

DEEDFYQGSME [ASCC1_Y36]
SH2 binding enrichment (SHP2-C SH2): 0.575 | SH2 binding enrichment (c-Src SH2): 0.427 | SH2 binding enrichment (Grb2 SH2): 0.572 | phosphorylation enrichment (AncSZ): 1.46 | phosphorylation enrichment (EPHB2): 0.595 | phosphorylation enrichment (EPHB1): 0.761 | phosphorylation enrichment (FGFR3): 0.953 | phosphorylation enrichment (Jak2): 1.54 | phosphorylation enrichment (MERTK): 0.524 | phosphorylation enrichment (c-Abl (mouse)): 0.889 | phosphorylation enrichment (Fes): 1.54 | phosphorylation enrichment (FGFR1): 0.549 | phosphorylation enrichment (Fyn): 0.598 | phosphorylation enrichment (c-Src): 0.603 | phosphorylation enrichment (Hck): 0.654 | phosphorylation enrichment (Fer (mouse)): 0.798

FGISGYLVDSV [MAP2K3_Y214]
SH2 binding enrichment (SHP2-C SH2): 0.883 | SH2 binding enrichment (c-Src SH2): 0.656 | SH2 binding enrichment (Grb2 SH2): 0.949 | phosphorylation enrichment (AncSZ): 0.982 | phosphorylation enrichment (EPHB2): 0.501 | phosphorylation enrichment (EPHB1): 0.377 | phosphorylation enrichment (FGFR3): 0.631 | phosphorylation enrichment (Jak2): 0.97 | phosphorylation enrichment (MERTK): 0.459 | phosphorylation enrichment (c-Abl (mouse)): 0.722 | phosphorylation enrichment (Fes): 1.2 | phosphorylation enrichment (FGFR1): 0.478 | phosphorylation enrichment (Fyn): 0.467 | phosphorylation enrichment (c-Src): 0.504 | phosphorylation enrichment (Hck): 0.471 | phosphorylation enrichment (Fer (mouse)): 0.529

GLRFGYGVLGG [KRTAP20-2_Y15_YF]
SH2 binding enrichment (SHP2-C SH2): 0.893 | SH2 binding enrichment (c-Src SH2): 0.493 | SH2 binding enrichment (Grb2 SH2): 0.674 | phosphorylation enrichment (AncSZ): 0.742 | phosphorylation enrichment (EPHB2): 0.488 | phosphorylation enrichment (EPHB1): 0.413 | phosphorylation enrichment (FGFR3): 0.574 | phosphorylation enrichment (Jak2): 0.562 | phosphorylation enrichment (MERTK): 0.311 | phosphorylation enrichment (c-Abl (mouse)): 0.519 | phosphorylation enrichment (Fes): 0.782 | phosphorylation enrichment (FGFR1): 0.358 | phosphorylation enrichment (Fyn): 0.548 | phosphorylation enrichment (c-Src): 0.434 | phosphorylation enrichment (Hck): 0.376 | phosphorylation enrichment (Fer (mouse)): 0.387

RRFVFYFSFLL [PTEN_Y177_YF]
SH2 binding enrichment (SHP2-C SH2): 0.688 | SH2 binding enrichment (c-Src SH2): 0.426 | SH2 binding enrichment (Grb2 SH2): 0.752 | phosphorylation enrichment (AncSZ): 1.06 | phosphorylation enrichment (EPHB2): 0.655 | phosphorylation enrichment (EPHB1): 0.654 | phosphorylation enrichment (FGFR3): 0.608 | phosphorylation enrichment (Jak2): 0.622 | phosphorylation enrichment (MERTK): 0.593 | phosphorylation enrichment (c-Abl (mouse)): 0.502 | phosphorylation enrichment (Fes): 0.744 | phosphorylation enrichment (FGFR1): 0.938 | phosphorylation enrichment (Fyn): 0.741 | phosphorylation enrichment (c-Src): 0.611 | phosphorylation enrichment (Hck): 0.899 | phosphorylation enrichment (Fer (mouse)): 0.829

KNKELYSDPFD [PDE10A_Y300_L303P]
SH2 binding enrichment (SHP2-C SH2): 0.805 | SH2 binding enrichment (c-Src SH2): 0.672 | SH2 binding enrichment (Grb2 SH2): 0.623 | phosphorylation enrichment (AncSZ): 0.877 | phosphorylation enrichment (EPHB2): 1.37 | phosphorylation enrichment (EPHB1): 0.878 | phosphorylation enrichment (FGFR3): 0.935 | phosphorylation enrichment (Jak2): 0.763 | phosphorylation enrichment (MERTK): 0.786 | phosphorylation enrichment (c-Abl (mouse)): 0.592 | phosphorylation enrichment (Fes): 0.886 | phosphorylation enrichment (FGFR1): 0.706 | phosphorylation enrichment (Fyn): 0.443 | phosphorylation enrichment (c-Src): 0.629 | phosphorylation enrichment (Hck): 0.824 | phosphorylation enrichment (Fer (mouse)): 0.983

LLSVAYKNVVR [YWHAZ_Y48_G53R]
SH2 binding enrichment (SHP2-C SH2): 0.566 | SH2 binding enrichment (c-Src SH2): 0.475 | SH2 binding enrichment (Grb2 SH2): 0.827 | phosphorylation enrichment (AncSZ): 1.28 | phosphorylation enrichment (EPHB2): 0.88 | phosphorylation enrichment (EPHB1): 0.874 | phosphorylation enrichment (FGFR3): 0.853 | phosphorylation enrichment (Jak2): 1.1 | phosphorylation enrichment (MERTK): 0.689 | phosphorylation enrichment (c-Abl (mouse)): 1.2 | phosphorylation enrichment (Fes): 1.34 | phosphorylation enrichment (FGFR1): 1.03 | phosphorylation enrichment (Fyn): 0.762 | phosphorylation enrichment (c-Src): 0.743 | phosphorylation enrichment (Hck): 0.477 | phosphorylation enrichment (Fer (mouse)): 0.55

DFLSSYSAVNE [OAT_Y85_Q90E]
SH2 binding enrichment (SHP2-C SH2): 0.902 | SH2 binding enrichment (c-Src SH2): 2.35 | SH2 binding enrichment (Grb2 SH2): 0.864 | phosphorylation enrichment (AncSZ): 0.896 | phosphorylation enrichment (EPHB2): 0.596 | phosphorylation enrichment (EPHB1): 0.504 | phosphorylation enrichment (FGFR3): 0.685 | phosphorylation enrichment (Jak2): 0.745 | phosphorylation enrichment (MERTK): 0.49 | phosphorylation enrichment (c-Abl (mouse)): 0.566 | phosphorylation enrichment (Fes): 0.953 | phosphorylation enrichment (FGFR1): 0.55 | phosphorylation enrichment (Fyn): 0.531 | phosphorylation enrichment (c-Src): 0.468 | phosphorylation enrichment (Hck): 0.554 | phosphorylation enrichment (Fer (mouse)): 0.525

RFVFFYSFLLK [PTEN_Y178_YF]
SH2 binding enrichment (SHP2-C SH2): 1.43 | SH2 binding enrichment (c-Src SH2): 0.552 | SH2 binding enrichment (Grb2 SH2): 1.45 | phosphorylation enrichment (AncSZ): 1.44 | phosphorylation enrichment (EPHB2): 0.502 | phosphorylation enrichment (EPHB1): 0.748 | phosphorylation enrichment (FGFR3): 0.9 | phosphorylation enrichment (Jak2): 1.64 | phosphorylation enrichment (MERTK): 0.539 | phosphorylation enrichment (c-Abl (mouse)): 1.45 | phosphorylation enrichment (Fes): 1.65 | phosphorylation enrichment (FGFR1): 0.731 | phosphorylation enrichment (Fyn): 0.623 | phosphorylation enrichment (c-Src): 1.05 | phosphorylation enrichment (Hck): 0.509 | phosphorylation enrichment (Fer (mouse)): 0.612

SQQTYCRVSNM [ABCD1_Y181_Y181C]
SH2 binding enrichment (SHP2-C SH2): 0.616 | SH2 binding enrichment (c-Src SH2): 1.01 | SH2 binding enrichment (Grb2 SH2): 0.897 | phosphorylation enrichment (AncSZ): 0.799 | phosphorylation enrichment (EPHB2): 1.98 | phosphorylation enrichment (EPHB1): 3.76 | phosphorylation enrichment (FGFR3): 0.683 | phosphorylation enrichment (Jak2): 0.623 | phosphorylation enrichment (MERTK): 0.738 | phosphorylation enrichment (c-Abl (mouse)): 0.851 | phosphorylation enrichment (Fes): 0.88 | phosphorylation enrichment (FGFR1): 0.587 | phosphorylation enrichment (Fyn): 0.751 | phosphorylation enrichment (c-Src): 0.718 | phosphorylation enrichment (Hck): 1.41 | phosphorylation enrichment (Fer (mouse)): 0.526

SVTFTYSPALN [TP53_Y126_C124Y_YF]
SH2 binding enrichment (SHP2-C SH2): 0.705 | SH2 binding enrichment (c-Src SH2): 0.457 | SH2 binding enrichment (Grb2 SH2): 0.862 | phosphorylation enrichment (AncSZ): 1.08 | phosphorylation enrichment (EPHB2): 0.554 | phosphorylation enrichment (EPHB1): 0.502 | phosphorylation enrichment (FGFR3): 0.697 | phosphorylation enrichment (Jak2): 0.991 | phosphorylation enrichment (MERTK): 0.336 | phosphorylation enrichment (c-Abl (mouse)): 0.675 | phosphorylation enrichment (Fes): 1.21 | phosphorylation enrichment (FGFR1): 0.392 | phosphorylation enrichment (Fyn): 0.424 | phosphorylation enrichment (c-Src): 0.392 | phosphorylation enrichment (Hck): 0.453 | phosphorylation enrichment (Fer (mouse)): 0.465

DLDTDYGSGYP [RNASEH2A_Y206]
SH2 binding enrichment (SHP2-C SH2): 0.565 | SH2 binding enrichment (c-Src SH2): 0.439 | SH2 binding enrichment (Grb2 SH2): 0.816 | phosphorylation enrichment (AncSZ): 1.36 | phosphorylation enrichment (EPHB2): 0.648 | phosphorylation enrichment (EPHB1): 0.691 | phosphorylation enrichment (FGFR3): 0.879 | phosphorylation enrichment (Jak2): 1.14 | phosphorylation enrichment (MERTK): 0.554 | phosphorylation enrichment (c-Abl (mouse)): 1.21 | phosphorylation enrichment (Fes): 1.47 | phosphorylation enrichment (FGFR1): 0.689 | phosphorylation enrichment (Fyn): 0.852 | phosphorylation enrichment (c-Src): 0.652 | phosphorylation enrichment (Hck): 0.589 | phosphorylation enrichment (Fer (mouse)): 0.682

EEETDYTPVWC [UROD_Y30_G25E]
SH2 binding enrichment (SHP2-C SH2): 0.791 | SH2 binding enrichment (c-Src SH2): 0.638 | SH2 binding enrichment (Grb2 SH2): 0.997 | phosphorylation enrichment (AncSZ): 1.58 | phosphorylation enrichment (EPHB2): 0.589 | phosphorylation enrichment (EPHB1): 0.689 | phosphorylation enrichment (FGFR3): 0.876 | phosphorylation enrichment (Jak2): 1.16 | phosphorylation enrichment (MERTK): 0.504 | phosphorylation enrichment (c-Abl (mouse)): 0.937 | phosphorylation enrichment (Fes): 1.25 | phosphorylation enrichment (FGFR1): 0.554 | phosphorylation enrichment (Fyn): 0.484 | phosphorylation enrichment (c-Src): 0.503 | phosphorylation enrichment (Hck): 0.578 | phosphorylation enrichment (Fer (mouse)): 0.771
